The Human Domainome abundance scans (Beltran et al. 2025)

B1: Transcription factor SOX-4, residues 60 to 127; numbered along this chain, Q06945 (parent)
chain: KRPMNAFMVWSQIERRKIMEQSPDMHNAEISKRLGKRWKLLKDSDKIPFIREAERLRLKHMADYPDYK

Variants of: B1
Assay: abundance fitness (aPCA) (normalised: wild type 0, dead -1); higher = more abundant; growth selection in yeast, the domain comes from the species named
Conditions: Homo sapiens

Abundance fitness, by site and new letter:
D43: G -0.27, M -0.062, Q -0.337, L -0.151, V -0.262, A -0.061, I -0.226, N -0.294, E -0.058, C -0.37, W -0.106, P -0.137, S -0.237, F -0.087, K -0.273
R55: L -0.326, W -0.44, D -0.136, M -0.2, S -0.309, F -0.38, N -0.22, V -0.248, Y -0.474, T -0.181, I -0.22, G -0.337, A -0.103, H -0.284, Q -0.188, E -0.333, P -0.5, C -0.292, K -0.08
K42: M -0.465, V -0.372, D -0.274, G -0.264, C -0.28, Q -0.104, H -0.487, L -0.368, S 0.13, W -0.786, A -0.066, N -0.212, I -0.609
D45: Y -0.361, V -0.414, Q -0.097, M -0.395, W -0.344, R -0.74, S -0.431, A -0.239, L -0.378, T -0.576, C -0.758, H -0.429, G -0.495, F -0.39, K -0.486, E -0.074
K59: S -0.024, E -0.017, G -0.045, V -0.086, Y -0.277, R -0.126, P -0.178, H -0.108, T -0.162, F -0.321, A -0.04, M -0.048, N -0.118, W -0.369, L 0.02, D -0.13
H60: I -0.408, D 0.005, F -0.193, A -0.055, C -0.205, K 0.023, G 0.04, E 0.053
I50: N -0.284, T -0.337, Y 0.041, A -0.186, F 0.003, R -0.2, W -0.633, E 0.009, S -0.322, L -0.194, K -0.362, G -0.309, C -0.51, Q -0.021
L40: V -0.329, T 0.019, S 0.039, G -0.08, I -0.468, C -0.046, P -1.29, D 0.094, Y -0.331, F -0.34, H -0.153, R -0.08, Q 0.011
L41: P -0.728, A -0.875, Y -0.807, W -0.946, S -0.779, K -0.653, E -0.849, Q -0.889, F -0.684, M 0.071, T -0.788, V -0.529, G -0.941
I47: N -0.322, T -0.178, K -0.112, Y -0.224, M -0.047, H -0.314, L 0.078, F -0.241, D -0.128, A 0.031, V -0.086, E 0.095, C -0.546, W -0.251, G -0.231, P -0.796, S -0.319, Q -0.006
F49: G -0.702, Q -0.972, R -1.04, T -0.623, V -0.763, Y -0.044, A -0.533, S -0.763, H -0.131, I -0.82, L -0.598, P -1.08, M -1.08, K -0.879
R57: S -0.309, C -0.048, G -0.247, M -0.135, K -0.375, P -0.236, H -0.815, F 0.056, D -0.372, T -0.19, W -0.32, E -0.111, L -0.328, A 0.06, V -0.413, Q -0.206
P48: I -0.089, E -0.189, C -0.504, M -0.168, G -0.51, T -0.346, V -0.315, Y -0.566, R -0.4, S -0.453, D -0.469, K -0.482, H -0.31, Q -0.286, W -0.493, F -0.351
S44: P -0.465, N -0.23, T -0.134, M -0.243, H -0.205, V -0.164, C -0.472, Y -0.687, D -0.217, F -0.442, E 0.119, R -0.264, Q -0.073, W -0.41, A 0.035
E52: R -0.322, Q -0.291, G -0.375, D -0.223, N -0.893, Y -0.634, P -1.14, T -0.477, F -0.215, L -0.3, S -0.712, H -0.726, W -0.58, K -0.515, C -0.353, V -0.556, M -0.394
L56: K -0.174, Q -0.108, D -0.385, A -0.355, S -0.282, Y -0.349, M 0.115, C -0.408, P -0.655, E -0.201, W -0.542, T -0.272, R -0.254, V -0.286, G -0.341, F -0.543, I -0.149
K39: G -0.098, M -0.144, S -0.027, C -0.329, F -0.481, E 0.057, P -0.783, V -0.306, L -0.244, A 0.093, N -0.19, Y -0.263, W -0.758, I -0.384, T -0.216, H -0.506, R -0.187
E54: P -0.802, Y -0.652, G -0.514, F -0.574, D -0.264, N -0.158, R -0.469, I -0.701, A -0.29, Q -0.071, K -0.369, C -0.425, H -0.435, L -0.501, V -0.696, W -0.643
W38: R -1.16, L -0.989, T -0.632, P -0.739, M -0.985, V -0.887, K -0.708, Q -1.02, N -0.874, Y -0.548
K46: D -0.524, Y -1, I -0.553, C -0.814, W -0.95, P -0.933, M -0.841, H -1.09, N -1.08, R -0.237, Q -0.701, L -0.652, S -0.901, V -0.798, F -0.995, A -0.937, T -0.694
A53: G -0.684, H -0.42, E -0.52, C -0.824, Q -0.898, N -0.275, Y -0.347, R -0.924, P -1.19, L -0.856, F -0.841, W -1.19, S -0.431, I -0.662, M -0.585, V -0.787
L58: C -0.247, F -0.084, R 0.007, K -0.07, N -0.028, T -0.087, Q 0.046, A 0.013, G 0.015, H -0.018, E 0.091, W -0.247, D -0.039, V -0.046, M -0.043, Y -0.286, S -0.011, I -0.132
